The test deals with phosphonull human rod opsin 6A mutant (human) (UniProt P08100).

For “human visual arrestin (rod arrestin, arrestin-1), wildtype (from UniProt P10523 1-405) (natural protein)”, the Toff in the BRET G-protein activation assay, untethered co-expression of Rod6A and ArrWT (comparison for the Rod6A-ArrWT fusions) amounted to 1240 s.
